This is an account of results in PMC10302475.

Where “and” joins values, the source holds several entries; their conditions need not be identical. Equal entries are not always repeated.

For this series, the target named is Sox6 HMG domain (human) (UniProt P35712). The experiment in a line: UV laser footprinting. The conditions noted are these: 10 mM Tris pH 7.4, 75 mM NaCl, 1 mM EDTA, 1 mM DTT, BSA (100 mg/mL [sic]), 0.01% NP40, 5% glycerol, 37 C, 50 nM DNA or nucleosome (Kdapp is not true Kd) ….
Chain of Sox6 HMG domain (human) (P35712 618-697): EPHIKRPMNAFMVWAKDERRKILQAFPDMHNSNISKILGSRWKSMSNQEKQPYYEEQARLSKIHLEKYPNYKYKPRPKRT

Sequence “GCATGATTCTTAAGACCGAGTTCATCCCTTATGTGATGGACCCTATACGCGGCCGCCATCAGAATCCCGGTGCCGAGGCCGCTCAATTGGTCGTAGACAGCTCTAGCACCGCTTAAACGCACGTACGCGCTGTCCCCCGCGTTTTAACCGCCAAGGGGATTACTCCGGACAATGGAGGCACGTGTCAGATATATACATCGATGTGCATGTATTGAACAGCGACCTTGCCGGTGCCAGTCGGATAGAATTCCGGAC (double strand) [601-SHL4 naked DNA]” came in with a K half of 180 nM.

On to “GCATGATTCTTAAGACCGAGTTCATCCCTTATGTGATGGACCCTATACGCGGCCGCCATCAGAATCCCGGTGCCGAGGCCGCTCAATTGGTCGTAGACAGCTCTAGCACCGCTTAAACGCACGTACGCGCTGTCCCCCGCGTTTTAACCGCCAAGGGGATTACTCCGGACAATGGAGGCACGTGTCAGATATATACATCGATGTGCATGTATTGAACAGCGACCTTGCCGGTGCCAGTCGGATAGAATTCCGGAC (double strand) [601-SHL4 nucleosome]”, for which the K half (apparent Kd, SHL4 site) came to 490 nM.

“GCATGATTCTTAAGACCGAGTTCATCCCTTATGTGATGGACCCTATACGCGGCCGCCATCAGAATCCCGGTGCCGAGGCCGCTCAATTGGTCGTAGACAGCTCTAGCACCGCTTAAACGCACGTACGCGCTGTCCCCCGCGTTTTGGACAATGGAGGCATTACTCCCTAGTCTCCAGGCACGTGTCAGATATATACATCGATGTGCATGTATTGAACAGCGACCTTGCCGGTGCCAGTCGGATAGAATTCCGGAC (double strand) [601-SHL2 naked DNA]” yielded a K half of 136 nM.

Regarding “GCATGATTCTTAAGACCGAGTTCATCCCTTATGTGATGGACCCTATACGCGGCCGCCATCAGAATCCCGGTGCCGAGGCCGCTCAATTGGTCGTAGACAGCTCTAGCACCGCTTAAACGCACGTACGCGCTGTCCCCCGCGTTTTGGACAATGGAGGCATTACTCCCTAGTCTCCAGGCACGTGTCAGATATATACATCGATGTGCATGTATTGAACAGCGACCTTGCCGGTGCCAGTCGGATAGAATTCCGGAC (double strand) [601-SHL2 nucleosome]”, under “apparent Kd, SHL2 site”, the K half is 374 nM.

For “GCATGATTCTTAAGACCGAGTTCATCCCTTATGTGATGGACCCTATACGCGGCCGCCATCAGAATCCCGGTGCCGAGGCCGCTCAATTGGTCGTAGACAGCTCTAGCACCGCTTAAACGCACGTAGGACAATGGAGGCGCGTTTTAACCGCCAAGGGGATTACTCCCTAGTCTCCAGGCACGTGTCAGATATATACATCGATGTGCATGTATTGAACAGCGACCTTGCCGGTGCCAGTCGGATAGAATTCCGGAC (double strand) [601-SHL0 naked DNA]”, the K half amounted to 100 nM.

As to “GCATGATTCTTAAGACCGAGTTCATCCCTTATGTGATGGACCCTATACGCGGCCGCCATCAGAATCCCGGTGCCGAGGCCGCTCAATTGGTCGTAGACAGCTCTAGCACCGCTTAAACGCACGTAGGACAATGGAGGCGCGTTTTGGACAATGGAGGCATTACTCCGGACAATGGAGGCACGTGTCAGATATATACATCGATGTGCATGTATTGAACAGCGACCTTGCCGGTGCCAGTCGGATAGAATTCCGGAC (double strand) [601-SHL024 naked DNA]”, the K half is 198 nM and 275 nM and 245 nM.

As for “GCATGATTCTTAAGACCGAGTTCATCCCTTATGTGATGGACCCTATACGCGGCCGCCATCAGAATCCCGGTGCCGAGGCCGCTCAATTGGTCGTAGACAGCTCTAGCACCGCTTAAACGCACGTAGGACAATGGAGGCGCGTTTTGGACAATGGAGGCATTACTCCGGACAATGGAGGCACGTGTCAGATATATACATCGATGTGCATGTATTGAACAGCGACCTTGCCGGTGCCAGTCGGATAGAATTCCGGAC (double strand) [601-SHL024 nucleosome]”, the K half is, setting by setting: (apparent Kd, SHL2 site of 3x) 550 nM; (apparent Kd, SHL4 site of 3x) 680 nM.
